Test: label from the status in PepcDB records

| Sequence | protein production |
| --- | --- |
| MSMYNMDLDKVIRKINKKGARTVGLQFPEGLKMQAVKIAKAIESQTPATVIISGDPCFGACDVSDYKMKGSVDLIVHYGHTPLPLKYEVPTLFIEAFSNIDVKKDLEKCLEKLEDYSKIALVTTTQHLHLLNEIKDYLEDNGKEVVLGSSKNTKKGQVLGCNFSSIKNLDAEVYLFIGSGNFHPLGIYLFTKSPVLALDPYNSEIRDISAFADRILRIRFARITKAREAEKWGIIVSSKEGQYRMKLAKEIKKILEDNKMEAYIIMADNINPDILLPYMELDAFVVSACPRIAIDDSQMYKKPLLTPQELEIVLNKRQWENYQLDEILFHERYK | failed |
| MLTQANIPSWYEGLNKSGLTPPGPVFSIVWSILYALLAIVGWVLWCSRNESEMRSVFYLYSVQMLMNWAWTPLFFVLHWTGLSFLWILVMAGLTGLLMFSQTNKKKSLAILLLPYLIWLLFAAYLNGVIWLLN | failed |
| MVQEIIVDSGDIEFLTTPKEYKQQLLSLIECARQRIFITALYLQDDEAGREILHALYQAKANFPTIEINIFVDFNRGQRGLIGEKASLGNRALYLKLAHEYPHTVNIYGVAVKRKELEHHHHHH | failed |
| MFKAPFSFDGRIRRIEYFLSGIIGGIVFGVAYSLGLATLFLGAAAGSAGGSLFGILIGIVAGIASIWFSLAQGVKRLHDLNKSGWLILICCVPIIGWVFSLYMLFADGTVGPNQYGEDPKNRMPYQPQPTSVNVTVNVSRETPAEAPAEEEKTEKAE | failed |
| MLKTSALAPCGKPMLIWPSQTSARRHGFSEASYCLWRSKFGGMSMPDAKRLKDLEAENTRLKKLLAEQVFQNDLIKDALQKMVSAPARRALVREWIAGGASERCALAAIGMSASALRYRPREDRNVELRERILALAHRHRRYGVGMISLKLRQEGRLVNYKRVERLYCEQQLQVRRRKRKKVPLGERAPLLRPTKANPVWSMDVVFDRTAEGRAIKCLVIVDDATHEAVAIDVERAISGHGVVRVLDRLAHSRGLPKMIRTDNGKEFCGKAMVAWAHANRVQLRQIQPGKPNQNAYVESFNGRLRDECLNKHGFPTLLHARTEIERWRREYNEHRPKKTIGGMTPAAYAQQLANSDIINPGL | failed |
| MDSYFLFFIILTSIFIVPQILKRFNVPTITATMLAGIIIGPFGLNLIQTSSTLDTFASFGVIFLMFLAGMEVDNETLKDEFKNSLVLSLFSMLIPAIGGYFIGQYFGLDFIGSLLYAVIFSSHSVGIVYALMDELGLIKSRFGTTVISASVVIDLISLIVISILIKMGGSGINSDIIPFIVLIVAYIIALLIIIPLISKLILNELQKFHVQKIHFILLIILISIIVGEHIGIHPIIGAFIIGIAVSEELTKEEHDKILNENLNAIGYGIFIPLFFLNLGMTTDISVIFNFDNLSLIFVSVVSLISLKIISGYFSLRILDYNKLKSFCGGLLTVPSLTASLVGATLGRDLGILPEKFFVAVVVIALLTSTVAPIYVKNLVSKNYDKLKLN | failed |
| MDKVFAPWRIEWVEREKTNPDVDCVFCAFQAQDDDRANNLVARSDHAFVLLNNYPYNPGHVMVIPHTHTGEYGDLDDKTLLDHGRLKQRTFDALETALSPDAFNAGLNLGGSAAGGSIDDHLHTHVVPRWNGDTNFMPVISDTKVIVEAVEETYDRLYAAFASQDGTTAPEDGAVRIE | failed |
| MNATAPGTPPNPPQSTGTLMPLVSFRRHRRIALMVMAVVVVFGAGFAWVKGKAVYSATAVLYVAPHFVNILKESKELDIPAYDQFIEHQALTVPRYDILLESLAKLGDRRYVWQKKKESDRRAAERLQAALEVKPVKDSYLITVTLESTTPDHLDELVNTIVDTYLEKSRESDSFFARNVRLTSLRERRGQIQGEIDAKLARRTEIAQELSVTTFSEQLASPYDKLLIESQNALAMAQRNRLASEAALALFEDRKSGQDAIAAAAFDTIQKDPGLISLKGSLYKRRSELLQQASGLDPRHPLKIQIDREFKEIDEELNRTVAKLTEQVAKSFIDQRKADVKRDRQIEQELSLQLESFRQKASWFAALYNEALSLSDEIERSRKQLDMIDERIEFFELESRAPGFVRVETYARPPELPVKGGRKKLFAVVLVLALALGAATPVGLDMLDQRIRTTGQVAKIIGHRPVAWFVEHHGSPDLKRMSADQLRRLAIAVNREREMHGSRLVSLTSVKPEAGVTDLALDLAAELGVLGVPTVVVEADPLRPDPRYRGGSAQPGLADLLAGSGEVTAAVVPAAGGLPARLGTGTAPGRQLFAYPALRRCLDELKAAYDLVLIDAPPLLLSADAEYLVEIADVTLLLVGAGQVKPGELRRAAGILEKIDPKAVGFVVTRLEVYRGGGYYAKLAEEFALAASHENGQKHTSRRLEG | failed |
| MNYFIVEVSEQEVKREKEKARELRRSQWWKNRIARGICHYCGEIFPPEELTMDHLVPVVRGGKSTRGNVVPACKECNNRKKYLLPVEWEEYLDSLESEPSDGEGLEHHHHHH | not failed |

Reference: a protein production outcome set (Wang et al. 2014)
